Laboratory results taken from paper PMC7083622.

T1: Zscan4(ZnF) (Mus musculus, UniProt Q80VJ6 369-506)
T1 sequence: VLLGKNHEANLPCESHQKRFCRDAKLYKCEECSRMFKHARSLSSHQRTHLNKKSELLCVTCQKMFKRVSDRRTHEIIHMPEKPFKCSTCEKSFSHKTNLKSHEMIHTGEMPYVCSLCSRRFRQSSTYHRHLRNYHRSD


Legend:
Zscan4(ZnF) [1] = molecular target: T1, Zscan4(ZnF); assay: EMSA
Zscan4(ZnF) [2] = molecular target: T1, Zscan4(ZnF); assay: EMSA; remark: listed apart in the source

Binder	Kd (Zscan4(ZnF) [1]) [µM]	binding result (Zscan4(ZnF) [2])
(TG)n oligo (dsDNA) DNA 1: TGTGTGCATCTGTGTGCATCAT DNA 2: ATGATGCACACAGATGCACACA	~500	–
(GC)n oligo (dsDNA) DNA 1: TCGCGCGTCGCGCGTCGCGCGC DNA 2: GCGCGCGACGCGCGACGCGCGA	–	no binding
